Square brackets hold non-standard residues; d marks the D form.
B1: P11 (peptide)
peptide: cyclo([dF]PQIMRIKPHQGQHIGE)
SMILES: CC[C@H](C)[C@@H]1NC(=O)[C@H](Cc2c[nH]cn2)NC(=O)[C@H](CCC(N)=O)NC(=O)CNC(=O)[C@H](CCC(N)=O)NC(=O)[C@H](Cc2c[nH]cn2)NC(=O)[C@@H]2CCCN2C(=O)[C@H](CCCCN)NC(=O)[C@H]([C@@H](C)CC)NC(=O)[C@H](CCCNC(=N)N)NC(=O)[C@H](CCSC)NC(=O)[C@H]([C@@H](C)CC)NC(=O)[C@H](CCC(N)=O)NC(=O)[C@@H]2CCCN2C(=O)[C@@H](Cc2ccccc2)NC(=O)[C@H](CCC(=O)O)NC(=O)CNC1=O
notes: Cyclopeptide; 6); also called P11 (cyclic) peptide
B2: P23 (peptide)
peptide: cyclo([dY]PRIKPHQ)
SMILES: CC[C@H](C)[C@@H]1NC(=O)[C@H](CCCNC(=N)N)NC(=O)[C@@H]2CCCN2C(=O)[C@@H](Cc2ccc(O)cc2)NC(=O)[C@H](CCC(N)=O)NC(=O)[C@H](Cc2c[nH]cn2)NC(=O)[C@@H]2CCCN2C(=O)[C@H](CCCCN)NC1=O
B3: P24 (peptide)
peptide: GRIKPH
modifications: cyclic (cyclo, ends of the linear peptide coupled)
notes: Cyclopeptide; also called cyclo(Gly-Arg-Ile-Lys-Pro-His)
B4: P16 (peptide)
peptide: RIKPHQG
modifications: cyclic (cyclo, ends of the linear peptide coupled)
notes: Cyclopeptide; also called cyclo(Arg-Ile-Lys-Pro-His-Gln-Gly)
B5: P21 (peptide)
peptide: cyclo([dF]PIMRIKPHQGQHI)
SMILES: CC[C@H](C)[C@@H]1NC(=O)[C@H](CCCNC(=N)N)NC(=O)[C@H](CCSC)NC(=O)[C@H]([C@@H](C)CC)NC(=O)[C@@H]2CCCN2C(=O)[C@@H](Cc2ccccc2)NC(=O)[C@H]([C@@H](C)CC)NC(=O)[C@H](Cc2c[nH]cn2)NC(=O)[C@H](CCC(N)=O)NC(=O)CNC(=O)[C@H](CCC(N)=O)NC(=O)[C@H](Cc2c[nH]cn2)NC(=O)[C@@H]2CCCN2C(=O)[C@H](CCCCN)NC1=O
notes: Cyclopeptide
B6: P20 (peptide)
peptide: cyclo([dF]PQIMRIKPHQGQHIG)
SMILES: CC[C@H](C)[C@@H]1NC(=O)[C@H](Cc2c[nH]cn2)NC(=O)[C@H](CCC(N)=O)NC(=O)CNC(=O)[C@H](CCC(N)=O)NC(=O)[C@H](Cc2c[nH]cn2)NC(=O)[C@@H]2CCCN2C(=O)[C@H](CCCCN)NC(=O)[C@H]([C@@H](C)CC)NC(=O)[C@H](CCCNC(=N)N)NC(=O)[C@H](CCSC)NC(=O)[C@H]([C@@H](C)CC)NC(=O)[C@H](CCC(N)=O)NC(=O)[C@@H]2CCCN2C(=O)[C@@H](Cc2ccccc2)NC(=O)CNC1=O
notes: Cyclopeptide

The binders below were run against T1, KDR receptor (VEGFR-2) (UniProt P35968 20-1356, limits assumed) (assay: cell-based or functional assay).
T1 sequence (P35968 20-1356 limits assumed): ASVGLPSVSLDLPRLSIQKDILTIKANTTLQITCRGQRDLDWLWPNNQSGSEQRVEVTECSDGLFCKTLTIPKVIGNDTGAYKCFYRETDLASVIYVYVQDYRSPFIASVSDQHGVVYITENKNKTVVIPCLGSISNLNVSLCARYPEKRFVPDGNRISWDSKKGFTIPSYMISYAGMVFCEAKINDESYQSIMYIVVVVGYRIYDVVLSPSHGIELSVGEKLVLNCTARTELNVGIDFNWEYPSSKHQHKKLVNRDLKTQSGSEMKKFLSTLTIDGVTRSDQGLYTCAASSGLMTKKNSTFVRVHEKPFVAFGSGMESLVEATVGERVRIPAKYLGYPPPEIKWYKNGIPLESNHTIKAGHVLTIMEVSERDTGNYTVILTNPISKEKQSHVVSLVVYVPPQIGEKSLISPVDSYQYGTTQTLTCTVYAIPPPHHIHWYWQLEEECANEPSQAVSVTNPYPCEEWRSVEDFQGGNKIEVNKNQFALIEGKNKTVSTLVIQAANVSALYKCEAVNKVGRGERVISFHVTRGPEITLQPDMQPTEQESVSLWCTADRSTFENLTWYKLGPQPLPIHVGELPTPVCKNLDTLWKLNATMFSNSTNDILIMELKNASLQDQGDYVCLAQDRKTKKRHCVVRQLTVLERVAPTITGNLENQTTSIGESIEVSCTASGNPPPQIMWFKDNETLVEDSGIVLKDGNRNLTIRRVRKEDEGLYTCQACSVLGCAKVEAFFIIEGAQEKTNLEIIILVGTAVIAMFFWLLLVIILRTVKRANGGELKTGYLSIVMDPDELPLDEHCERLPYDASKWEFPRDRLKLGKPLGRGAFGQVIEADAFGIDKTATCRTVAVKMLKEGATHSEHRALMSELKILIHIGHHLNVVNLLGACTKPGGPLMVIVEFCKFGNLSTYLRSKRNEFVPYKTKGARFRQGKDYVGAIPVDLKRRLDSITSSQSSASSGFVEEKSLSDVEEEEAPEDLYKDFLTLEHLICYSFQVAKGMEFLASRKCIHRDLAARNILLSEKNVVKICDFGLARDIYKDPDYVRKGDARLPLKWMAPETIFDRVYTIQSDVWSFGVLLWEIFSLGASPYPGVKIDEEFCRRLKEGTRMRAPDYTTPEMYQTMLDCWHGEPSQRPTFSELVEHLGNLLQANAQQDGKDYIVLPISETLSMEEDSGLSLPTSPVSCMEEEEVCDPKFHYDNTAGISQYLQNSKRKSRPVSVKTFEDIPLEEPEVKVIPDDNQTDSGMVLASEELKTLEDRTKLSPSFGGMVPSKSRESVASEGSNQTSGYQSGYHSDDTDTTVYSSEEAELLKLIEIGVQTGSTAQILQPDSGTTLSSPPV

With B1 the “Migration (IC50)” value was 30 µM.

With B1 the “Proliferation (IC50)” value was 7 µM.

Each binder was assayed against KDR receptor (VEGFR-2) (UniProt P35968) (assay: displacement of 125I-VEGF from CHOm VEGFR2 cells).
Sequence of KDR receptor (VEGFR-2) (UniProt P35968) (P35968 20-1356 limits assumed): as above

Binder B2 has an IC50 of 8 µM.

The binders below were run against T1, KDR receptor (VEGFR-2) (assay: displacement of 125I-VEGF from CHOm VEGFR2 cells).

In order of rising IC50:
1. B1  2 µM
2. QIMRIKPHQGQHIGE (cyclic (cyclo, cyclised on the solid phase, method B), Cyclopeptide) [P19]  5 µM
3. B3  8 µM
4. PRIKPHQG (cyclic (cyclo, ends of the linear peptide coupled), Cyclopeptide) [P17]  10 µM
5. B6  10 µM
6. B4  32 µM
7. B5  200 µM
8. GRIKPHQGH (cyclic (cyclo, ends of the linear peptide coupled), Cyclopeptide) [P8]  200 µM
9. PRIKPHQGQH (cyclic (cyclo, ends of the linear peptide coupled), Cyclopeptide) [P9]  300 µM
10. GQIMRIKPHQGQHIGE (cyclic (cyclo, ends of the linear peptide coupled), Cyclopeptide) [P12]  300 µM

Source: USRE44022 (COMMISSARIAT A L ENERGIE ATOMIQUE, dated 2013)
